Source: US8624002B2, “Prostaglandin E2 binding proteins and uses thereof” (AbbVie, Inc., priority 2008, dated 2014)

Legend:
^3H-PGE2 ELISA (binding) = assay: ^3H-PGE2 ELISA (binding)
Description: Alternatively, prostaglandin binding was determined using a ^3H-PGE2 ELISA. Plates were coated at 50 μL/well with 5 μg/ml of goat anti-human IgG (Fc) (Thermo Scientific # 31170, Hudson, N.H.) or goat anti-mouse IgG (Fc) (Thermo Scientific # 31125, Hudson, N.H.) in PBS and incubated overnight at 4° C. The following day, plates were flicked and blotted dry. Plates were blocked with 200 μL/well of Superblock (Thermo Scientific # 37515, Hudson, N.H.) for 1 hour at room temperature. Plates were flicked and blotted dry. Monoclonal antibodies were diluted to 0.04 μg/ml in phosphate buffer solution with Tween 20 (PBST) (Abbott Bioresearch Center, Worcester, Mass.) and 10% Superblock and 50 μL of each antibody was added to each well of the pre-blocked ELISA plate at 2 ng/well and incubated for 1 hour at room temperature. Wells were washed 3 times with PBS+0.1% Tween-20. A serial 3-fold titration of ^3H-PGE2 (Perkin Elmer # NET-428, Waltham, Mass.) was prepared in PBST/10% Superblock. Fifty microliters of the ^3H-PGE2 solution was added to each well of the plate and incubated for 1 hour at room temperature. […] Plates were read using a TopCount reader (Perkin Elmer, Waltham, Mass.) with a 5 minute count delay. An EC50 number was determined using GraphPad Prism 5 (GraphPad Software, La Jolla, Calif.).

[1] = test system: PGE2 induced Ca++ influx in HEK293 Gα16 cells stably transfected with human EP4 receptor; assay: EP4 bioassay: PGE2 induced Ca++ flux (FLIPR); type: cell-based; settings: PGE2 25 pm; read-out: IC50 (pM) @ PGE2 25 pm Cellular Potency in EP4 assay
Description: The ability of anti-PGE2 antibody to inhibit cellular response of PGE2 in vitro was determined in a Ca^++ flux assay in HEK293 Gα16 cells (Abbott Bioresearch Center, Worcester, Mass.) stably transfected with human EP4 receptor. In brief, an expression plasmid encoding one of the four human PGE2 receptors, EP4, and an expression plasmid encoding Gα16, were co-transfected into human embryonic kidney cell line 293 cells (ATCC# CRL1573, Manassas, Va.). The stable clones co-expressing both human EP4 and Gα16 protein were selected using standard methods (Joseph Sambrook and David W. Russell. Molecular Cloning: A Laboratory Manual Publisher. Published by Cold Spring Harbor Laboratory Press, 2001) and used for the EP4 bioassay. The HEK293 Gα16 cells were plated in black/clear poly-D-lysine plates (Corning #3667, Corning, N.Y.) and incubated with a Ca^++-sensitive dye (Molecular Devices, Sunnyvale, Calif.) for 90 minutes. Stock PGE2 (in 200 proof ethanol) was diluted with FLIPR buffer [containing 1×HBSS (Invitrogen Carlsbad, Calif.), 20 mM HEPES (Invitrogen Carlsbad, Calif.), 0.1% BSA (Sigma, St. Louis, Mo.) and 2.5 mM Probenecid (Sigma, St. Louis, Mo.)]. Anti-PGE2 antibodies or isotype matched control antibodies were also pre-diluted in FLIPR buffer. 25 μl of PGE2 or pre-incubated PGE2/antibody mixture was added to the wells pre-plated with cells. The dose response of PGE2 was determined on a serial titration of PGE2 and using FLIPR1 or Tetra (Molecular Devices, Sunnyvale, Calif.) and EC50 was determined using GraphPad Prism 5 (GraphPad Software, La Jolla, Calif.). […] Ca^++ flux was monitored using FLIPR1 and data was analyzed using GraphPad Prism 5 (GraphPad Software, La Jolla, Calif.).

[2] = Accelerated stability screening monitored by SEC; type: physicochemical; settings: for Aggregate (%) / Fragment (%) / Monomer (%): SEC
Description: Size exclusion chromatography was used to separate proteins based on size. Proteins are carried in an aqueous mobile phase and through a porous stationary phase resin packed in a column. The retention time in the column is a function of the hydrodynamic size of the protein and the size of the pores in the packed resin bed. Smaller molecules can penetrate into smaller pores in the resin and are retained longer than larger molecules. Upon elution from the column the proteins are detected by UV absorbance. The SEC method used a TSK gel guard (TOSOH Biosciences, Montgomeryville, Pa., cat. no. 08543) and a TSK gel G3000SWxL (TOSOH Biosciences, Montgomeryville, Pa., cat. no. 08541). The mobile phase was 100 mM Na2HPO4, 200 mM Na2SO4, pH 7.0. The flow rate was 0.3 mL/minute. Injection volume was 20 μL of 1 mg/mL sample. The column temperature was room temperature. The autosampler temperature was 2-8° C. The total run time was 50 minutes. The detection was based on UV absorbance at 214 nm wavelength, with band width set at 8 nm, using reference wavelength at 360 nm with band width 100 nm.
(§1) The stability of a series of clones (i.e., anti-PGE2 antibodies) of the parent anti-PGE2 antibody was assessed by using intrinsic thermodynamic clone stability determination using DSC (0.79 mg/mL clone concentration, formulated at pH 6 in a 10 mM citrate, 10 mM phosphate buffer) and by accelerated stability screening (0.79 mg/mL clone concentration, formulated at pH 6 in a 10 mM citrate, 10 mM phosphate buffer, for 7 days at 50° C.) where clone stability was monitored with SEC (Table 15).

[3] = Intrinsic thermodynamic stability by DSC; type: physicochemical
Description: The thermal stability of the anti-PGE2 antibodies was assessed using a DSC instrument. The DSC instrument used was an automated VP-DSC equipment with Capillary Cell (Microcal, GE Healthcare Ltd./Microcal, Buckinghamshire, UK). Unfolding of molecules was studied applying a 1° C./minute scan rate over a 25° C.-95° C. temperature range for samples at 1 mg/mL. Additional measurement parameters applied were a fitting period of 16 seconds, a pre-scan wait time of 10 minutes, and measurements were performed in none-feedback mode. Per individual measurement, 420 μL of sample/blank were filled into the DSC measurement sample holder, with a plate fill scheme as provided below. The thermograms obtained were fitted to a non two state model to obtain the midpoint temperatures and enthalpies of the different transitions.
as §1

[4] = Capillary zone electrophoresis; type: physicochemical; settings: running buffer pH 5.5; compared with Hu2B5.2, Hu2B5.4, Hu2B5.6, Hu2B5.8
From the text: Capillary zone electrophoresis is a capillary electrophoresis method in which the capillary is filled with buffer and the separation mechanism is based on differences in electrophoretic mobility of the analyte through the buffer. The electrophoretic mobility of a molecule is related to the charge-to-size ratio. A Beckman-Coulter ProteomeLab PA 800 (Beckman Coulter, Fullerton, Calif.) was used for the CZE analysis. A neutral capillary (eCAP neutral, 56 cm total length, 50 μm I. D. Beckman-Coulter, P/N 477441, Fullerton, Calif.) was used. The method used a 30.2 cm capillary with a detection window 20.2 cm from the sample introduction inlet. The running buffer was 100 mM EACA (6-Aminocaproic acid, Sigma A7824-100 G, St. Louis, Mo.) with 0.1% MC (from 1% Methylcellulose solution, Convergent Bioscience, cat# 101876, Toronto, ON, Canada), pH 5.5.

IC50 (^3H-PGE2 ELISA (binding)): 0.704 nM
B1: Hu2B5.9: humanized 2B5-8.0; VH SEQ ID NO 76, VL SEQ ID NO 77 (antibody, V domains shown)
VH: EVQLVQSGAEVKKPGASVKVSCKASGYTFTKYWLGWVRQAPGQGLEWMGDIYPGYDYTHYNEKFKDRVTMTTDTSTSTAYMELRSLRSDDTAVYYCARSDGSSTYWGQGTLVTVSS
VL: DIVMTQTPLSLPVTPGEPASISCTSSQNIVHSNGNTYLEWYLQKPGQSPQLLIYKVSNRFSGVPDRFSGSGSGTDFTLKISRVEAEDVGVYYCFQVSHVPYTFGGGTKVEIKR
IC50 [1]: 125 pM
monomer levels after 7 days accelerated stability screening ([2]; 7 days at 50° C.): highest monomer levels
Aggregate (%) ([2]; 7 days storage at 50° C.): 1.9559%
Fragment (%) ([2]; 7 days storage at 50° C.): 3.4127%
Monomer (%) ([2]; 7 days storage at 50° C.): 94.6313%
Fragment (%) ([2]; start of stability study): 2.541%
Monomer (%) ([2]; start of stability study): 95.6031%
Aggregate (%) ([2]; start of stability study, 0.79 mg/mL, pH 6): 1.8559%
Tm1 (° C.) ([3]; 0.79 mg/mL, pH 6, 10 mM citrate, 10 mM phosphate): 73.235 °C
Tm2 (° C.) ([3]; same buffer): 75.965 °C
Tm3 (° C.) ([3]; same buffer): 83.04 °C
migration in capillary zone electrophoresis [4]: migrated more basic
